Experimental data: the DeepSol protein solubility set

Assay: soluble on expression in E. coli; label from the status in PepcDB or PDB records

Sequence | soluble on expression in E. coli
QIKSQGCRISRTFLLICSRGRKQRMKDSENKGASSPDMEPSYGGGLFDMVKGGAGRLFSNLKDNLKDTLKDTSSRVIQSVTSYTKGDLDFTYVTSRIIVMSFPLDNVDIGFRNQVDDIRSFLDSRHLDHYTVYNLSPKSYRTAKFHSRVSECSWPIRQAPSLHNLFAVCRNMYNWLLQNPKNVCVVHCLDGRAASSILVGAMFIFCNLYSTPGPAIRLLYAKRPGIGLSPSHRRYLGYMCDLLADKPYRPHFKPLTIKSITVSPIPFFNKQRNGCRPYCDVLIGETKIYSTCTDFERMKEYRVQDGKIFIPLNITVQGDVVVSMYHLRSTIGSRLQAKVTNTQIFQLQFHTGFIPLDTTVLKFTKPELDACDVPEKYPQLFQVTLDVELQPHDKVIDLTPPWEHYCTKDVNPSILFSSHQEHQDTLALGGQAPIDIPPDNPRHYGQSGFFASLCWQDQKSEKSFCEEDHAALVNQESEQSDDELLTLSSPHGNANGDKPHGVKKPSKKQQEPAAPPPPEDVDLLGLEGSAMSNSFSPPAAPPTNSELLSDLFGGGGAAGPTQAGQSGVEDVFHPSGPASTQSTPRRSATSTSASPTLRVGEGATFDPFGAPSKPSGQDLLGSFLNTSSASSDPFLQPTRSPSPTVHASSTPAVNIQPDVSGGWDWHAKPGGFGMGSKSAATSPTGSSHGTPTHQSKPQTLDPFADLGTLGSSSFASKPTTPTGLGGGFPPLSSPQKASPQPMGGGWQQGGAYNWQQPQPKPQPSMPHSSPQNRPNYNVSFSAMPGGQNERGKGSSNLEGKQKAADFEDLLSGQGFNAHKDKKGPRTIAEMRKEEMAKEMDPEKLKILEWIEGKERNIRALLSTMHTVLWAGETKWKPVGMADLVTPEQVKKVYRKAVLVVHPDKATGQPYEQYAKMIFMELNDAWSEFENQGQKPLY | soluble
MIEKKIHYVWFGNAKSEKVLKCIESWKKNLPDYEIIEWNEKNFNIEEELKSNKFFRECYNRKLWAFVSDYVRVKVLYNYGGIYLDTDMEIIKDITPLLDADMFLGYENEDTMSFGIVGVIPKHKVFKKMYEFYQNEIWKSPLHIVTSILTEILEKEYHGKYRENNINIYPREYFYPFNHDEEFTKDCITGNTYAIHWWGKSWKKNPKVYFLKYKHLPWWKKYPKHVAKLINYYFKNLFNFRKELEHHHHHH | soluble
MAHHHHHHMQTYHRHMTSSSNPVVIFVFDHQGSAVTDFWAPLLQSVSKGLDAFGIEVAHAPTSSEIGQQLLAAMNAGSGPIILFFQGVGDTPAEGGKGLKMPIAYDGNIDMAHIMSWGLSCISSSVTHRVHNDVDLARFFAQYPQYPALPHVLYFPSTSYTPGGYLALSQHFALDAVFGVVPNAFTAPNATHIAQRYNITSKDELPVLLVLHRSTADAGGGAGESDRVVRMPAAATSLSYREALAFLSTQITDTVAALVAKAESTQNQHFLEVAESRRVYMMGQLIERQHDIVEEERLQMAREPILVKDQAVWAKECVQLPKKHRCVAAFVDSAQDSAAKDNAVKVLSLVSVKLLEIMGREAQKVSLVVVDRQGSDAVREYFDVGHNGFPDVLFLSLDRPAKYYNFVGTFSAEGVTQFVASHDAQLTQKDVRGGHTFIPRMVPKLEEAVAVPRSGDEDKDDL | soluble
MNTLLSLMNSIEQEARTIYDSYDAKKKALADKKEEELKQLFLEYEQETQLLLEAKREVFFEANRQEQKASKKRLATQQLALHAILEEHKLTVVRELVDKVVETYGH | not soluble
APWFLEYSKSECHFYNGTQRVRLLVRYFYNLEENLRFDSDVGEFRAVTELGRPDAENWNSQPEFLEQKRAEVDTVCRHNYEIFDNFLVPRRVEPTVTVYPTKTQPLEHHNLLVCSVSDFYPGNIEVRWFRNGKEEKTGIVSTGLVRNGDWTFQTLVMLETVPQSGEVYTCQVEHPSLTDPVTVEW | soluble
MFPIGEQPRILKDLAGINEDVQELAISGKTKNIELLGELKIRDLWIFTVNQTQFDKIMEYVNPEILYIDEMRVENLSKLQKMSNLRRLYLGWNPKNTDLWDLSYNNNLSYLLIQAFSKLEDLSPIKDGKKLEGLFLGGAIMKTLNVKTLDPIGDLVELNELTLMNIKVQDRSLEPLMNLKRLKKLNVSNQFPMEEYAKLSVVLQNTECEFFKPYVRMESTEGKDIMMIGRKRPFLNSKIDAEKIRKYEQEFKTVQEEFRDGMK | not soluble
MDANEFHWLMDMLESVEVGLVVLDLDFHVQAWNGFMEHHSGITARQIRDKVLFEVFPDIPEAWLTRKVDAVAMLNTRAFTSWEQRPYLFKFRNTRPITGTEEYMFQNLTISPITAPNGEVEKVCLLVYDVTEFASSKRALERANEQLAKLSMTDRLTGLLNRGTWENLVDAEYERFRRYGQATSLVMFDIDHFKPVNDTYGHLAGDEVIRHTADVTRNNIRQSDSAGRYGGEEFGIILPETDAESARVICERIREAIEKSTVSTSAGDIQYTVSMGIAQLTETPENYMQWMQKADEALYKAKESGRNKVVVSLEHHHHHH | soluble
MVGPATGRIVVTSRIVVLGGGFGGMYAARALKRRLGRAAEIELVNAENYFVFQPLLPEVGAGSITPAHAVSPLRFLLRDVFVRKATVDSVDFDRRLVTVFQGVQRRPTEIGYDHLVIALGQAADLSKMPGLEEHALTMRTLEDARRLRAHVIGQLEHAQITRLPEVKRGALTFCVVGGGFSGIETAGEMKDLIDRSLKFYPDIDPSEVRMIVVEFADRILGEMSQGLADYATRTLRERGIEVKLGTGVASATGTQLVTTTGEVIDTRTIVATIGNAPSPVVRRMGLPSERGRISVDRTLAVKGRSDVWALGDCALIALKDAPQGPRDYAPPTAQFAVREAEQLAENIASTLTGGTPQPFDYRSKGALASLGARKGVAQVFGLELKGFPAWLLWRFYYLAFLPGLTTRIFVLLNWFMDGISPRSVVQLHTRSVPPTRYVRYRAGDVIYEAGNRSDGFYTVVTGAVEMTRTDPETGLPQVRTIGPGGHFGERLILGATRRQTSVRAAEDTKVLVMDREEFLKLADSFQAFRDYFGPYMARHGMTWPPLGETDGQAAPKPVPTEKDLEHHHHHH | not soluble
MGSDKIHHHHHHMSSINYAEKIPNNVNLSEDRKLQRALESWQPHYIDWWKEMGPEGTSTSEIYLRTAISAEPDGWAQFGHVKMEDYRWGIFLAPPEKDRKVNFGAHKGEAAWQEVPGEYRSMLRRLITVQGDTEPASVEQQRLLGKCCPSLYDLRNLFQVNVEEGRHLWAMVYLLHAHFGKDGREEAEEMLARRSGDADKPRILGAFNEKTADWLAFFMFTFITDRDGKYQLCALAESGFDPLSRSCRFMLTEEAHHMFVGESGVGRIIERACQVMKENRTDDVRKFGVIDLPTIQRYLNFHYSVTSDLYGAEVSTNAATSYNMGIKGRYEETKIGDDHQLENTTYSVLHPVNGGFQAIEVPALNALNERLRLDWAEDVAKGVERWNKIIAKHGIDFKLTLPHLAFNRAIGHFSDIAVDPSGKVISTEEFARRRDEWLPSESDLAYVLSLMGSAVTKPGQFANWIAPPARGINNQAVDFDYVRFA | not soluble
MRDVPNIGFISLGCPKNLVDSERILTELRSDGYNIIPSYENADLVIVNTCGFIDSAVQESLEAVGEALKENGKVIVTGCLGAKENQIREVHPKVLEITGPHSYEAVMQHVHKYVPRPERNMYTSLVPAQGVKLTPKHYAYLKISEGCDHRCTFCIIPSMRGDLDSRPIVQILDEAKRLADSGVKELLIVSQDTSAYALDQTKENQNKTVFWNGVPIKNNLISLCEQLATLGIWIRLHYVYPYPHVDNLIPLMAEGKILPYLDIPLQHASPKILKAMKRPGSIDRTLERIKQWREICPELTLRSTFIVGFPGETEEDFQMLLDFLTEAQLDRVGCFKFSPVDGAVATEMAEQVPEEVKEERFHRFMQVQQRISVARLQQKIGKTLAIIIDEIDEYGIIGRSMADAPEIDGVVYVDNISQQAVTVGQIILVTITNADEYDLWGTYLEHHHHHH | soluble
MIIQIEEYFIGMIFKGNQLVRNTIPLRREEIFNFMDGEVVSNPEDEHLKVAEIILKLYFAEIDDKKVRELISYKLEVPEFTKKVLDIVKDIEFGKTLTYGDIAKKLNTSPRAVGMALKRNPLPLIIPCHRVVAKNSLGGYSYGLDKKKFILERERLNMVSFKFNKVY | soluble
MSLPKPQLRIIAGDFEDPRIIALLAHHFATMRSTGPEESCHVMPLGTMRQADLDFFAAWDGDALAGFGAVKQLGDGHGEIKSMHTAAAYRGRGVGQAVLDHLSTHARALGLQRLSLETGAGDFFVPARAMYARNGFQTCDPFGDYKPDPNSVFMTRMLEGHHHHHH | not soluble
MSLEDCRISRVELYALADENAPPIPWADNQEPLLYTNNIVRLFTEDGTEGLGATMSYTENFFDRCIIESLRTIVPGLIGKNPLMTQELNNWLGARCTWGGLPAKSPIDIAAWDIKGKKAGMPLYMLLGGARTKIKSYASTPMFDTVEEYFPYIDDCIEHGFTAIKLHCYCVYDKDVALVEAVEAKYGTSGIRFMLDTAGFYTPEQAMKMAKWMERHNWEWLEAPVSDYDFKTYQRLVANTDLEISSHGNCLLTLQEVTHALSTGMWSDVRQDATVCGGITQLNKCFAIAAGHSKNLEIQSMGYTLTQAANLHVALAHDNCNFFEQFYPYEAFELASKTQIRTDKEGYVHAPAGNGLGVEMDWDAVKEASFASYVFEEGHHHHHH | soluble
MAHHHHHHMGIYIFCLFPKGGRESKWGKPTITTKKVQGMPFPHPSHHHHHYHQKQQKTHHCHPRCTLVFLRQARAHKAITPPDVQRRTQRLNAQGKTTKKKSYDDGPPFFLFEKKKKRKAERHKEKGEKEGKGNVNTYRIVKEKEKVNKYLIYFYNNNNNYYYTYVCVYIHTTT | not soluble
MSPLNFTHILTQTVDELSESESYKGLFHQHKDGEPLPSPRVLCDVIELARSILFPGYYGNSTVNSRTINYHIGVNVEKLFNLLTEQILAGLCFGNGDRCDECTEAKREEAARLAAKFISKLPHLRRVLATDVEAAYNGDPAAQSFGEVIFCYPAIKAISNYRIAHELLELGVPLIPRIITEMAHSETGIDIHPGARIGTHFTIDHGTGVVIGATSIIGNNVKLYQGVTLGARSFPLDADGKPIKGIPRHPILEDNVIVYSNATILGRITIGRDATVGGNIWVTENIPAGARIVQTKAKKLEHHHHHH | soluble
MGSDKIHHHHHHMKLLHIERHTTCLNYVSDYNICFIHQRLFSGGDFKIDNHHHSCILFLLKGEILTSCSEFHDQHIVEGHMVLFPQNDPNQSKSMTETEFILLFFDNQVNLHNKMSIELSAIHLESEKSCFYSLSICPPLRHVLDSICFYLKQKVQCSHMHELKQKEIFMVFGTFYNRTDMAHFLMPITGRDPNFKSFVLENYLQIRNIKQFAQLYHCSERSFNRKFKSCFHDTPYNWILNQKTRHIKGQLANRNIPISEIARTFHFASPSHFTTYCKKRLGITPSEFREKIAK | not soluble
MAHHHHHHMSLCHTASRWRSVQCTGDIPPGRIGHTLCANGTETKIFLYGGVNDRNESISNYLDDLYVFDVNKKHWSKIEMTGQVQCSRAFHSAVYYEGKIYIFGGCNGRGRFNKLFSTSEEGLCAQIEASGQPPSTRYCHSAVLFERCMYIFAGKCGGRNSNRRLSDLYLFDFQTNTWMECPQHGDPPTPRSAHAAFTCGRNMIMFGGRSAQGECCEDMYMYNYDTCMWRPIESPNSGPLFGRARNSVVVHHGKVVVFGGWNGKKKLNDLFTYHVDSNTFEVMHEPDENCPSRRECHVAVVCKNTMVVFGGRFRGEFMSDTAELDLGPKTLKQNCRDWILRSSFKELHSNRGERLPLRLQQFIESWRQLICRVEKIEPRTPLQDSAPNEALSSDSNSQHG | not soluble
MVGWRRMGLPADSLSDEALLALVARGDEEAFRALFRRYAGSFLALARRMGLDGAAAEDVVQEAMIRVWQKAKEFDPRRGSARAFLLTLGHHAAVDEVRRRAARPLPLEPDPEREEEAFDLPGPGLDEEGHLDRTRLGRALKALSPEERRVIEVLYYQGYTHREAASLLGLPLGTLKTWARRALSKLKEVLREP | soluble
MIKIEINGIDEIIAKLNLIANKTENKTDLMRNIAGTMESAVQTNFEVGGRPKWLGIKHRKGVPLVDSENLMDSITSAYDNDTAFVGTNEEYAAIHQFGGMAGRGCKVKIEARPFLTLTEQDKSDILEEITDYWQRLLQ | not soluble
